Experiments:
EGFR [1] = molecular target: T1, EGFR (Mus musculus, UniProt Q01279); experiment: Co-immunoprecipitation of mLeg1 and EGFR in cells isolated from liver homogenate; assay type: binding; conditions: liver cells incubated at 4° C. with crosslinking agent DSP
T1 construct: from tissue; host or cells: liver of mLeg1^Δ/Δ mice
Experimental: Since the reaction of mLeg1 activating EGFR is very short and the EGFR will be degraded soon after being activated, the inventors of the present disclosure used mLeg1 to incubate the liver cells at 4° C., and simultaneously added a crosslinking agent DSP thereto to stabilize the interaction between mLeg1 and its potential interacting protein, and then washed mLeg1 and lysed the liver cells using NP40 lysate for co-immunoprecipitation. The experimental method was as follows.
21.1 Antibody crosslinking: 30 μl of proteinA/G (beyotime Cat. No. P2012) was centrifuged at a low speed (500-1000 g) to remove the supernatant, and then washed twice using 4° C. pre-chilled PBS, then added with mLeg1 antibody (20 μg of antibody were dissolved in 1×100 μl PBS) for incubation at room temperature for 30 minutes, and then centrifuged to remove the supernatant. The beads were washed three times with 300 μl of PBS, then incubated with 50 μl of DSS solution (5 μl 10×PBS, 36 μl H2O, 9 μl 2.5 mM DSS (Thermo, Cat. NO. 21655)) for 50 minutes at room temperature. After centrifugation to remove supernatant, the beads were washed three times with 50 μl of 100 mM pH 2.2 glycine, washed twice with 300 μl of PBS containing 1% NP40, and finally washed once with 300 μl of PBS. […]
21.5 The protein pulled down by the mLeg1 antibody was detected by Western blot.

[2] = system: Akt phosphorylation in the liver; experiment: Liver Akt phosphorylation after intragastric administration of mLeg1; assay type: in vivo, mouse
Experimental: 22.1 The column chromatography partially purified mLeg1 protein was intragastrically administered to the mLeg1^Δ/Δ mice at 50 ng of mLeg1 per gram of body weight of the mice.
22.2 The mice were sacrificed at different time points (0, 10, 20, 40, 60 min) after intragastric administration and liver samples were collected, an immunoprecipitation experiment was conducted to pull down mLeg1 protein (if there is any) and its interacting protein in the liver by using mLeg1 antibodies Reference may be made to steps 21.2-21.5.
This may result from the fact that mLeg1 binds with EGFR rapidly, and transmitted downstream signals rapidly, as in in vitro experiments, mLeg1 can activate EGFR within 1 minute and the phosphorylation level of EGFR began to decrease within 3 minutes. Further, the inventors of the present disclosure also detected the activation of such intragastrically administered mLeg1 protein on downstream Akt. […] According to the above results, mLeg1 secreted from the salivary glands can be transferred into the liver and activates EGFR in the liver, thereby activating Akt to finally regulate the physiological functions of the liver cells.

EGFR [3] = molecular target: T2, EGFR (Homo sapiens, UniProt P00533); experiment: Effect of EGFR inhibitor on mLeg1-induced Akt and EGFR phosphorylation in HepG2 cells; assay type: cell-based; conditions: HepG2, 15 minutes
T2 construct: endogenous in cells; host or cells: HepG2
Description: 20.1 Culture of the HepG2 cell: reference may be made to step 18.1 for details.

[4] = system: Akt phosphorylation of the HepG2 cells; experiment: Akt phosphorylation of HepG2 cells incubated with mLeg1 protein partially purified from salivary glands (Western blot); assay type: cell-based, human
Experimental: 16.1.1 The salivary glands of two to three wild-type mice were harvested and rinsed in the pre-cooled PBS buffer, minced into fine pieces with scissors, and then transferred to a tissue homogenizer, added with 4 ml of lysate buffer (50 mM Tris-Hcl, pH 8.0, 150 mM NaCl, 0.5% NP40, 2× complete), fully homogenized on ice by pipetting through a 23G needle repeatedly, incubated for 30 minutes at 4° C. in a vertical shaker, and then centrifuged at 12000 g at 4° C. for 15 minutes to collect the supernatant.
16.1.2 The supernatant was passed through a sepharose 6B gel filtration column at a constant speed at 4° C., wherein the PBS buffer was used for elution, and different eluted components were separately collected by 4 ml per tube.
16.1.3 The content of mLeg1 in each tube was detected by Western blot. The tube with the highest mLeg1 content was taken as partially purified mLeg1, and the concentration of mLeg1 protein was estimated using the recombinantly-expressed mLeg1 protein in Escherichia coli as a reference, for subsequent experiments.
16.1.4 The partially purified mLeg1 protein was diluted to different concentrations (3.14×10^−2 ng/0.314 ng/μl and 3.14 ng/μl), and the different concentrations of mLeg1 protein were added to HepG2 culture medium respectively to culture HepG2, followed by incubation at 37° C. for 20 minutes, then total protein was extracted (as to the method of extraction, reference can be made to step 13.2), and Akt phosphorylation level at the different concentrations was detected by Western blot (referring to step 14.3, anti-p-Akt antibody (S473, Cell signaling #4060P) was selected as the corresponding antibody, and the dilution ratio was 1:1000).
16.2.1 mLeg1 protein-enriched components from wild-type mice and from mLeg1^Δ/Δ mice were extracted respectively. […]
16.2.3 The Akt phosphorylation level at different concentrations was detected by Western blot (reference can be made to step 13.2 for details, anti-p-Akt antibody (S473, Cell signaling #4060P) was selected as the corresponding antibody, and the dilution ratio in use was 1:1000).

interaction with EGFR (pull-down by mLeg1 antibody) (EGFR [1]): EGFR could be co-precipitated
EGFR phosphorylation (EGFR [3]; mLeg1 treatment): induced EGFR phosphorylation
Akt phosphorylation (EGFR [3]; partially purified mLeg1 vs BSA control): could be induced
B1: mLeg1 protein: mouse secretory protein (SEQ ID NO: 2) encoded by mLeg1 gene, partially purified from salivary glands by column chromatography (protein, listed as Mus musculus)
chain: MAVLASWVWVLAGCFCAAVAEVSDSSDPYPPLWEDSPEQLSDYMMEDGNYIINPWVYTDRMGMYRILLEETAMYFAKYGPENEQNLLWGLPLQFGWQYQSGRLADPTGMTDCGNELNESLCVSVDSWWADINYYLSVIPFLAAVDSGITGISPNQITILPPPKDQMRFCYNVSDCQSAVPGTMNRWRDFFQYMQLNSSDFDGLLNYLWEAHASSLDYPTSAFGDRYNFYSEKEANFEENWAIAVNYLAAARLPTTQNRTYSFQRGLPPRVLVDTDIAPFIPDFTPLQNEVLVSLKLLGDTDRNSGSLSLTLWENLMSTKLARTLFLKAFEEFLATSS
modifications: partially purified
Akt phosphorylation in the liver ([2]; 10 minutes after intragastric administration): increased
Akt phosphorylation in the liver ([2]; 40 minutes to 60 minutes after intragastric administration): more significant
induction of Akt phosphorylation ([4]; HepG2, 37° C. 20 minutes, 3.14×10^−2, 0.314 and 3.14 ng/μl): could induce Akt phosphorylation
level of partially purified mLeg1 able to induce Akt phosphorylation of the HepG2 cells ([4]; HepG2, 20 minutes): nanogram levels
ability to induce Akt phosphorylation ([4]; HepG2, 20 minutes, compared with corresponding components of mLeg1Δ/Δ salivary glands): significantly higher

Reference: patent US20180312557A1, “Leg1 Protein, Leg1 Gene, and Uses and Drugs thereof” (ZHEJIANG UNIVERSITY, priority 2016, published 2018)
